# Measured values reported in the supplement of paper PMC11246515.
# ± gives the standard deviation of the averaged measurements.
# Test: total protein half-life in vivo (active degradation + dilution); higher = more stable protein
# [1] = E. coli NCM3722 delta-clpP, growth: N-lim chemostat, doubling time 6 h
# [2] = wild type E. coli NCM3722, growth: P-lim chemostat, doubling time 12 h
# [3] = E. coli NCM3722 delta-clpP delta-lon delta-hslV, growth: N-lim chemostat, doubling time 6 h
# [4] = E. coli NCM3722 delta-hslV, growth: N-lim chemostat, doubling time 6 h
# [5] = E. coli NCM3722 delta-lon, growth: N-lim chemostat, doubling time 6 h
# [6] = E. coli NCM3722 delta-smpB, growth: N-lim chemostat, doubling time 6 h
# [7] = wild type E. coli NCM3722, growth: C-lim chemostat, doubling time 3 h
# [8] = wild type E. coli NCM3722, growth: C-lim chemostat, doubling time 6 h
# [9] = wild type E. coli NCM3722, growth: C-lim chemostat, doubling time 12 h
# [10] = wild type E. coli NCM3722, growth: N-lim chemostat, doubling time 6 h
# [11] = wild type E. coli NCM3722, growth: N-lim chemostat, doubling time 12 h
# [12] = wild type E. coli NCM3722, growth: P-lim chemostat, doubling time 6 h
Sequence,total protein half-life in vivo [1],total protein half-life in vivo [2],total protein half-life in vivo [3],total protein half-life in vivo [4],total protein half-life in vivo [5],total protein half-life in vivo [6],total protein half-life in vivo [7],total protein half-life in vivo [8],total protein half-life in vivo [9],total protein half-life in vivo [10],total protein half-life in vivo [11],total protein half-life in vivo [12]
MTVNSSRNALKRRTWALFMFFFLPGLLMASWATRTPAIRDILSVSIAEMGGVLFGLSIGSMSGILCSAWLVKRFGTRNVILVTMSCALIGMMILSLALWLTSPLLFAVGLGVFGASFGSAEVAINVEGAAVEREMNKTVLPMMHGFYSLGTLAGAGVGMALTAFGVPATVHILLAALVGIAPIYIAIQAIPDGTGKNAADGTQHGEKGVPFYRDIQLLLIGVVVLAMAFAEGSANDWLPLLMVDGHGFSPTSGSLIYAGFTLGMTVGRFTGGWFIDRYSRVAVVRASALMGALGIGLIIFVDSAWVAGVSVVLWGLGASLGFPLTISAASDTGPDAPTRVSVVATTGYLAFLVGPPLLGYLGEHYGLRSAMLVVLALVILAAIVAKAVAKPDTKTQTAMENS,4.21 h,7.65 h,–,–,–,–,–,–,–,–,–,–
MTVPTYDKFIEPVLRYLATKPEGAAARDVHEAAADALGLDDSQRAKVITSGQLVYKNRAGWAHDRLKRAGLSQSLSRGKWCLTPAGFDWVASHPQPMTEQETNHLAFAFVNVKLKSRPDAVDLDPKADSPDHEELAKSSPDDRLDQALKELRDAVADEVLENLLQVSPSRFEVIVLDVLHRLGYGGHRDDLQRVGGTGDGGIDGVISLDKLGLEKVYVQAKRWQNTVGRPELQAFYGALAGQKAKRGVFITTSGFTSQARDFAQSVEGMVLVDGERLVHLMIENEVGVSSRLLKVPKLDMDYFE,4.02 ± 0.13 h,10.4 ± 0.31 h,5.65 ± 1.1 h,3.84 ± 0.13 h,4.33 ± 0.27 h,3.561 ± 0.012 h,2.94 ± 0.055 h,4.88 ± 0.19 h,10.48 ± 0.072 h,3.599 ± 0.011 h,7.77 ± 3.8 h,4.92 ± 0.1 h
MTVQTSKNPQVDIAEDNAFFPSEYSLSQYTSPVSDLDGVDYPKPYRGKHKILVIAADERYLPTDNGKLFSTGNHPIETLLPLYHLHAAGFEFEVATISGLMTKFEYWAMPHKDEKVMPFFEQHKSLFRNPKKLADVVASLNADSEYAAIFVPGGHGALIGLPESQDVAAALQWAIKNDRFVISLCHGPAAFLALRHGDNPLNGYSICAFPDAADKQTPEIGYMPGHLTWYFGEELKKMGMNIINDDITGRVHKDRKLLTGDSPFAANALGKLAAQEMLAAYAG,5.29 ± 1.6 h,10.5 ± 1.5 h,5.25 ± 1.1 h,4.05 ± 0.35 h,4.62 ± 0.19 h,4.27 ± 0.24 h,2.88 ± 0.26 h,5.19 ± 0.35 h,10.6 ± 0.23 h,3.97 ± 0.85 h,7.51 ± 0.27 h,5.31 ± 0.43 h
MTVRILAVCGNGQGSSMIMKMKVDQFLTQSNIDHTVNSCAVGEYKSELSGADIIIASTHIAGEITVTGNKYVVGVRNMLSPADFGPKLLEVIKEHFPQDVK,5.3 h,9.81 h,> 8 h,6.08 ± 2.4 h,–,3.21 h,2.24 h,3.71 h,4.74 ± 0.78 h,–,–,5.12 ± 1.8 h
MTVTTFSELELDESLLEALQDKGFTRPTAIQAAAIPPALDGRDVLGSAPTGTGKTAAYLLPALQHLLDFPRKKSGPPRILILTPTRELAMQVSDHARELAKHTHLDIATITGGVAYMNHAEVFSENQDIVVATTGRLLQYIKEENFDCRAVETLILDEADRMLDMGFAQDIEHIAGETRWRKQTLLFSATLEGDAIQDFAERLLEDPVEVSANPSTRERKKIHQWYYRADDLEHKTALLVHLLKQPEATRSIVFVRKRERVHELANWLREAGINNCYLEGEMVQGKRNEAIKRLTEGRVNVLVATDVAARGIDIPDVSHVFNFDMPRSGDTYLHRIGRTARAGRKGTAISLVEAHDHLLLGKVGRYIEEPIKARVIDELRPKTRAPSEKQTGKPSKKVLAKRAEKKKAKEKEKPRVKKRHRDTKNIGKRRKPSGTGVPPQTTEE,5.51 ± 0.25 h,7.44 ± 0.14 h,5.75 ± 0.085 h,4.72 ± 0.45 h,5.13 ± 0.37 h,4.237 ± 0.022 h,3.01 ± 0.26 h,5.47 ± 0.41 h,9.33 ± 0.45 h,4.2 ± 0.049 h,7.37 ± 0.27 h,4.18 ± 0.28 h
MTWEYALIGLVVGIIIGAVAMRFGNRKLRQQQALQYELEKNKAELDEYREELVSHFARSAELLDTMAHDYRQLYQHMAKSSSSLLPELSAEANPFRNRLAESEASNDQAPVQMPRDYSEGASGLLRTGAKRD [P0ADW3],5.58 ± 0.45 h,12.5 ± 1.1 h,6.13 ± 0.15 h,5.63 ± 0.57 h,5.76 ± 0.067 h,5.84 ± 0.37 h,3.33 ± 0.31 h,6.4 ± 0.23 h,12.4 ± 2.7 h,5.78 ± 0.092 h,11.7 ± 0.66 h,5.43 ± 0.44 h
MTWFIDRRLNGKNKSMVNRQRFLRRYKAQIKQSISEAINKRSVTDVDSGESVSIPTEDISEPMFHQGRGGLRHRVHPGNDHFVQNDRIERPQGGGGGSGSGQGQASQDGEGQDEFVFQISKDEYLDLLFEDLALPNLKQNQQRQLTEYKTHRAGYTANGVPANISVVRSLQNSLARRTAMTAGKRRELHALEENLAIISNSEPAQLLEEERLRKEIAELRAKIERVPFIDTFDLRYKNYEKRPDPSSQAVMFCLMDVSGSMDQSTKDMAKRFYILLYLFLSRTYKNVEVVYIRHHTQAKEVDEHEFFYSQETGGTIVSSALKLMDEVVKERYNPAQWNIYAAQASDGDNWADDSPLCHEILAKKLLPVVRYYSYIEITRRAHQTLWREYEHLQSTFDNFAMQHIRDQDDIYPVFRELFHKQNATAKG,2.2 ± 0.052 h,3.11 ± 0.88 h,2.93 ± 0.22 h,1.52 ± 0.018 h,1.525 ± 0.004 h,1.49 ± 0.047 h,1.37 ± 0.082 h,1.6 ± 0.063 h,1.95 ± 0.46 h,1.47 ± 0.039 h,1.64 ± 0.027 h,1.98 ± 0.3 h
MTWLPLNPIPLKDRVSMIFLQYGQIDVIDGAFVLIDKTGIRTHIPVGSVACIMLEPGTRVSHAAVRLAAQVGTLLVWVGEAGVRVYASGQPGGARSDKLLYQAKLALDEDLRLKVVRKMFELRFGEPAPARRSVEQLRGIEGSRVRATYALLAKQYGVTWNGRRYDPKDWEKGDTINQCISAATSCLYGVTEAAILAAGYAPAIGFVHTGKPLSFVYDIADIIKFDTVVPKAFEIARRNPGEPDREVRLACRDIFRSSKTLAKLIPLIEDVLAAGEIQPPAPPEDAQPVAIPLPVSLGDAGHRSS,–,–,4.85 ± 0.84 h,–,–,1.32 ± 0.25 h,3.48 h,3.62 ± 1.9 h,5.4 h,1.32 h,–,2.23 h
MTYAVEFDNVSRLYGDVRAVDGVSIAIKDGEFFSMLGPSGSGKTTCLRLIAGFEQLSGGAISIFGKPASNLPPWERDVNTVFQDYALFPHMSILDNVAYGLMVKGVNKKQRHAMAQEALEKVALGFVHQRKPSQLSGGQRQRVAIARALVNEPRVLLLDEPLGALDLKLREQMQLELKKLQQSLGITFIFVTHDQGEALSMSDRVAVFNNGRIEQVDSPRDLYMRPRTPFVAGFVGTSNVFDGLMAEKLCGMTGSFALRPEHIRLNTPGELQANGTIQAVQYQGAATRFELKLNGGEKLLVSQANMTGEELPATLTPGQQVMVSWSRDVMVPLVEER,6.427 ± 0.038 h,10.8 ± 1.8 h,6.01 ± 0.38 h,5.58 ± 0.28 h,4.65 ± 1.3 h,5.64 ± 0.085 h,–,–,10.2 ± 0.023 h,4.78 ± 0.27 h,10.4 ± 0.55 h,4.68 h
MTYQQAGRIAVLKRILGWVIFIPALISTLISLLKFMNTRQENKEGINAVMLDFTHVMIDMMQANTPFLNLFWYNSPTPNFNGGVNVMFWVIFILIFVGLALQDSGARMSRQARFLREGVEDQLILEKAKGEEGLTREQIESRIVVPHHTIFLQFFSLYILPVICIAAGYVFFSLLGFI,5.2 ± 0.35 h,12 ± 0.18 h,5.41 ± 0.081 h,5.42 ± 0.091 h,5.94 h,6.11 ± 1.1 h,2.86 ± 0.074 h,–,13.5 ± 0.8 h,5.62 ± 0.27 h,9.96 ± 2.3 h,5.46 ± 0.11 h
MVAVRSAHINKAGEFDPEKWIASLGITSQKSCECLAETWAYCLQQTQGHPDASLLLWRGVEMVEILSTLSMDIDTLRAALLFPLADANVVSEDVLRESVGKSVVNLIHGVRDMAAIRQLKATHTDSVSSEQVDNVRRMLLAMVDDFRCVVIKLAERIAHLREVKDAPEDERVLAAKECTNIYAPLANRLGIGQLKWELEDYCFRYLHPTEYKRIAKLLHERRLDREHYIEEFVGHLRAEMKAEGVKAEVYGRPKHIYSIWRKMQKKNLAFDELFDVRAVRIVAERLQDCYAALGIVHTHYRHLPDEFDDYVANPKPNGYQSIHTVVLGPGGKTVEIQIRTKQMHEDAELGVAAHWKYKEGAAAGGARSGHEDRIAWLRKLIAWQEEMADSGEMLDEVRSQVFDDRVYVFTPKGDVVDLPAGSTPLDFAYHIHSDVGHRCIGAKIGGRIVPFTYQLQMGDQIEIITQKQPNPSRDWLNPNLGYVTTSRGRSKIHAWFRKQDRDKNILAGRQILDDELEHLGISLKEAEKHLLPRYNFNDVDELLAAIGGGDIRLNQMVNFLQSQFNKPSAEEQDAAALKQLQQKSYTPQNRSKDNGRVVVEGVGNLMHHIARCCQPIPGDEIVGFITQGRGISVHRADCEQLAELRSHAPERIVDAVWGESYSAGYSLVVRVVANDRSGLLRDITTILANEKVNVLGVASRSDTKQQLATIDMTIEIYNLQVLGRVLGKLNQVPDVIDARRLHGS [P0AG20],5.46 ± 0.31 h,9.13 ± 0.26 h,5.7 ± 0.41 h,4.65 ± 0.24 h,4.99 ± 0.054 h,4.36 ± 0.23 h,2.68 ± 0.21 h,4.87 ± 0.11 h,8.04 ± 0.43 h,4.74 ± 0.17 h,7.78 ± 0.22 h,4.8 ± 0.23 h
